Laboratory results: patent US20050054571A1, “Antimicrobial proteins from the SPO1 bacteriophage” (Rice University, priority 2003, published 2005)

How the values were obtained:
[1] = system: bacterial DNA, RNA, and protein synthesis; experiment: DNA, RNA and protein synthesis in uninfected bacteria expressing cloned SPO1 genes; type: cell-based, B. subtilis or E. coli; conditions: expression of cloned gene(s) in uninfected cells
Procedure: Pulse Labeling: Rates of synthesis of host and phage RNA or protein were measured in C4 medium as described previously (Wei and Stewart, 1993), by pulse-labeling for 5 minutes with [5-^3H]uridine, or [4,5-^3H]leucine, precipitating with TCA, and counting the precipitate. Since SPO1 DNA contains hmUra in place of thymine, host DNA synthesis could be measured independently by pulsing with [methyl-^3H]thymidine. Phage DNA synthesis was measured by pulsing with [2,8-^3H]adenine, and measuring alkali-stable, TCA-precipitable counts. Pulsing with [2,8-^3H]adenine measures host as well as phage DNA synthesis, but most host DNA synthesis has been shut off by the time that phage replication begins, even in mutant infections, so incorporation of label after 12 minutes is overwhelmingly into phage DNA. The time given for each pulse is the time at which the pulse began.
Adding gene 50 to the 51 clone increases its lethal efficiency, as does combining all 3 genes in a single clone. […] Mutants resistant to genes 51/50 have been isolated, but the mutant gene(s) have not yet been identified. […] The effects on DNA and protein synthesis are probably indirect effects of the inhibition of host RNA synthesis.
The simplest hypothesis as to how GP44/50/51 regulate gene expression is that they interact with the host's RNAP to change its transcriptional specificity. […]

E. coli = experiment: Effect of induced expression of cloned SPO1 genes on growth and viability of E. coli (liquid medium and colony formation); type: cell-based; conditions: cloned gene(s) expressed from IPTG-inducible promoter, * = lethality conclusion based on failure to clone, ** = data not conclusive
Text: (§1) For analysis of antimicrobial activity we first cloned most of the 24 host-takeover genes (genes 37-60) singly or in multiple gene combinations into a B. subtilis/E. coli shuttle vector (pPW19) under control of an IPTG-inducible promoter (Wei and Stewart, 1993). […] These remaining genes are being cloned using expression vectors with more tightly regulated promoters, such as pJONEX4 (Sayers, 1996), pET101, or pX (Kim et al., 1996). The transformed E. coli and B. subtilis were used to determine the antimicrobial activity, if any, of the cloned genes. The effect of induction on bacterial growth and viability was measured both in liquid medium and by colony formation. Definitive establishment of lethality was shown by loss of the ability to form colonies even after removal from the inducing agent. Indication of probable lethality was based on total inability to form colonies under inducing conditions.

B. subtilis [2] = experiment: Effect of induced expression of cloned SPO1 genes on growth and viability of B. subtilis (liquid medium and colony formation); type: cell-based; conditions: cloned gene(s) expressed from IPTG-inducible promoter, * = lethality conclusion based on failure to clone, ** = data not conclusive
Text: as §1

[3] = system: bacterial DNA, RNA, and protein synthesis; conditions: uninfected cells of either B. subtilis or E. coli; Wei and Stewart, 1993, 1995; cited from earlier work
[4] = system: E. coli strain DH5(pPW27); experiment: Killing of E. coli by IPTG-induced expression in liquid medium, viable cells counted by plating without inducer (FIG. 8); type: cell-based; conditions: within three hours after induction at time 0 (0.2 mM IPTG), plating in the absence of inducer
Procedure: FIG. 8. Expression of SPO1 GP44 in E. coli. Cells of E. coli strain DH5(pPW27), which expresses SPO1 gene 44 from an IPTG-inducible promoter, were transformed either with vector pACYC177 or with plasmid pPW40, in which the mutant ipoB gene had been cloned in pACYC177. Aliquots of the two cultures were induced by adding 0.2 mM IPTG at time 0, and were assayed for viable cells at various times thereafter, by plating on media lacking IPTG. Open symbols, no IPTG; Closed symbols, 0.2 mM IPTG added at time 0; Squares, mutant rpoB; and Circles, no mutant rpob. Viable cell count is expressed in cells/ml ×10^−6.
(§2) In cells growing in liquid medium, expression of the cloned gene 44 was induced at time 0. At subsequent times, the number of cells remaining viable was measured by plating in the absence of inducer. More than 99% of the cells were killed within three hours.

B. subtilis [5] = experiment: Effect of gene expression on cell division of B. subtilis; type: cell-based; conditions: expression of the gene alone in B. subtilis
Text: Genes 58-56: Expression of the whole operon is lethal to both species. […] Infection by SPO1 inhibits cell division, and a gene 56 mutation prevents that inhibition. B. subtilis mutants resistant to GP56 have been isolated, but the mutant gene(s) has not yet been identified.

bacteria = experiment: Toxicity or lethality of expression of cloned SPO1 genes, bacterium not given; type: cell-based
Text: as §1, §2

B1: Gene 51: product of SPO1 host-takeover gene 51, SEQ ID NO: 15 (protein)
chain: MAKINKGYVANFIEENGFPEQGHFEEKKDLQAFYKHLSTEQLEEWVELEGLEVKDTDSDSIYRMRLCMAILYLNFPKKTAGKKKASPYKHISLEELVQMATDNDIEVKHTDSDKILRMRTIMALKEAGKLG
modifications: SPO1 Bacteriophage
effect of expression on bacterial DNA, RNA and protein synthesis [1]: inhibiting DNA, RNA, and protein synthesis | Lethality, E. coli (E. coli; listed as 51): Lethal | Lethality, B. subtilis (B. subtilis [2]; listed as 51): Lethal

B2: Gene 44: product of SPO1 host-takeover gene 44, SEQ ID NO: 8 (protein)
chain: MAKSNNVYVVNGEEKVSTLAEVAKVLGVSRVSKKDVEEGKYDVVVEEAAVSLADTEEVVEEVVTEEEDILEGVEVVEDEEEEEAAEDVEEPTSEEDSEDEWEEGYPVATEVEEDEDEEIEYPEVGDFEDEKAIKKYIKGLTDEQLQAWCELEGAEWVENEHRNINRMRMAMAIKAVHFPELAKKPSSKKKSKYAEYTTEELVEMAIDNNVEVRDDKGNERILRMYTIIALREAGLIS
modifications: SPO1 Bacteriophage
effect of expression on bacterial DNA, RNA and protein synthesis [1]: inhibiting DNA, RNA, and protein synthesis | Lethality, E. coli (E. coli; listed as 44): Lethal | effect of expression on bacterial RNA synthesis and viability [3]: caused the shutoff of bacterial RNA synthesis and cell death | Lethality, B. subtilis (B. subtilis [2]; listed as 44): Lethal | cells killed [4]: More than 99%

B3: Gene 56: product of SPO1 host-takeover gene 56, SEQ ID NO: 20 (protein)
chain: MFKYTDRSVRQYIERQQRSAMLEQEQAEKDKKERRKAGLLFFGTIVVLVAVVAVYIVPQSLDAMWHENYEKPAQEAARN
modifications: SPO1 Bacteriophage
Lethality, E. coli (E. coli): Mildly toxic | Lethality, B. subtilis (B. subtilis [2]; listed as 56): Lethal | effect on cell division (B. subtilis [5]): specifically inhibiting cell division, without affecting DNA synthesis or chromosomal segregation | toxicity or lethality of expression (bacteria): lethal effect
